Measured values taken from PMC12528898 (The Journal of Biological Chemistry, 2025).

B1: Rab10 Q68L (full length, nonprenylated, nonphosphorylated) (natural protein, human, UniProt P61026 1-200, looked up)
chain: MAKKTYDLLFKLLLIGDSGVGKTCVLFRFSDDAFNTTFISTIGIDFKIKTVELQGKKIKLQIWDTAGLERFHTITTSYYRGAMGIMLVYDITNGKSFENISKWLRNIDEHANEDVERMLLGNKCDMDDKRVVPKGKGEQIAREHGIRFFETSAKANINIEKAFLTLAEDILRKTPVKEPNSENVDISSGGGVTGWKSKCC
notes: also called His SUMO Rab10 (full length) Q68L; untagged Rab10 Q68L; source: E. coli, purified (TALON, Ulp1 cleavage, Superdex 200), 20 μM GTP in all buffers
B2: His Rab8A Q67L (full length, nonprenylated, nonphosphorylated) (natural protein, human, UniProt P61006 1-207, looked up)
chain: MAKTYDYLFKLLLIGDSGVGKTCVLFRFSEDAFNSTFISTIGIDFKIRTIELDGKRIKLQIWDTAGLERFRTITTAYYRGAMGIMLVYDITNEKSFDNIRNWIRNIEEHASADVEKMILGNKCDVNDKRQVSKERGEKLALDYGIKFMETSAKANINVENAFFTLARDIKAKMDKKLEGNSPQGSNQGVKITPDQQKRSSFFRCVLL
notes: subcloned from HA-Rab8A (DU35414) into pET14b; also called Rab8A-6XHis; unphosphorylated Rab8A; source: E. coli, purified (TALON, Superdex 75), 20 μM GTP in all buffers
B3: Thiophosphorylated His Rab8A Q67L (natural protein, human, UniProt P61006 1-207, looked up)
chain: B2 chain
modifications: thiophosphorylated with ATPγS by MST3 kinase (fully modified by PhosTag gel); the residue is not given
notes: Rab8A GTPase, full length, Q67L, thiophosphorylated form of m5; also called Thio-pRab8A (Q67L); thiophosphorylated Rab8A; source: E. coli, purified (TALON, Superdex 75); thiophosphorylated in vitro overnight at 4 °C by His-MST3 kinase with ATPγS
B4: Rab12 Q101L (full length, nonprenylated, nonphosphorylated) (natural protein, human, UniProt Q6IQ22-2 1-244, looked up)
chain: MDPGAALQRRAGGGGGLGAGSPALSGGQGRRRKQPPRPADFKLQVIIIGSRGVGKTSLMERFTDDTFCEACKSTVGVDFKIKTVELRGKKIRLQIWDTAGLERFNSITSAYYRSAKGIILVYDITKKETFDDLPKWMKMIDKYASEDAELLLVGNKLDCETDREITRQQGEKFAQQITGMRFCEASAKDNFNVDEIFLKLVDDILKKMPLDILRNELSNSILSLQPEPEIPPELPPPRPHVRCC
notes: also called His SUMO Rab12 (full length) Q101L; source: E. coli, purified (TALON, Ulp1 cleavage, Superdex 200), 20 μM GTP in all buffers

What follows are binders tested against T1, mNeon PPM1H (full-length PPM1H with mNeon inserted into loop 1 at position 125) (human, UniProt Q9ULR3 1-514) (assay: MST; unlabelled Rab protein (16 serial dilutions) titrated against 100 nM fluorescent mNeon PPM1H variant; 30 min in the dark; Monolith NT.115; three independent measurements with different protein preparations). Settings: both partners purified.
T1 construct: PPM1H phosphatase, human, full length; mNeon inserted into loop 1 (residues 115-133) at position 125; the plasmid is pET15b His SUMO mNeon PPM1H; His-SUMO removed by Ulp1 before gel filtration; also called WT PPM1H; HisSUMO-mNeon PPM1H; not shown: mNeon, internal (loop 1, at position 125), kept
T1 sequence (looked up): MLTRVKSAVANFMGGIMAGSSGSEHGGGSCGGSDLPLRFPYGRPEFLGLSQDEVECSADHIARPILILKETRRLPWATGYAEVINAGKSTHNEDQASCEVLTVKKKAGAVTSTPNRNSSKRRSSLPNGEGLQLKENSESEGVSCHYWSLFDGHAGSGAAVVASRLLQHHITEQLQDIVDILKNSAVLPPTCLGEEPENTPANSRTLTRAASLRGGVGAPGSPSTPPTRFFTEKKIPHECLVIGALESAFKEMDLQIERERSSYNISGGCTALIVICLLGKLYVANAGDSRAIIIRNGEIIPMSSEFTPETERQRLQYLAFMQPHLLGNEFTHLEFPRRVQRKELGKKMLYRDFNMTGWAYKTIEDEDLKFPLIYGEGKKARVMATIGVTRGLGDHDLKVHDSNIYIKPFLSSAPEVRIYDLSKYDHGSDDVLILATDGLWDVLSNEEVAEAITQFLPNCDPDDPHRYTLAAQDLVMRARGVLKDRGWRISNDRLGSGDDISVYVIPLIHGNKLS
B1 showed a Kd of 1300 nM. Work on B2 yielded a Kd of 1400 nM. B3 gave a Kd of 1000 nM. B4 gave a Kd of 7400 nM.
